# Data taken from paper PMC3476531, “Synergy of Peptide and Sugar in O-GlcNAcase Substrate Recognition” (Chemistry & Biology, 2012).
# *: point of attachment. βGlcNAc = CC(=O)N[C@@H]1[C@@H](O)[C@H](O)[C@@H](CO)O[C@H]1*
# T1: human O-GlcNAcase (hOGA), wild-type (human) (UniProt O60502)
# T1 sequence: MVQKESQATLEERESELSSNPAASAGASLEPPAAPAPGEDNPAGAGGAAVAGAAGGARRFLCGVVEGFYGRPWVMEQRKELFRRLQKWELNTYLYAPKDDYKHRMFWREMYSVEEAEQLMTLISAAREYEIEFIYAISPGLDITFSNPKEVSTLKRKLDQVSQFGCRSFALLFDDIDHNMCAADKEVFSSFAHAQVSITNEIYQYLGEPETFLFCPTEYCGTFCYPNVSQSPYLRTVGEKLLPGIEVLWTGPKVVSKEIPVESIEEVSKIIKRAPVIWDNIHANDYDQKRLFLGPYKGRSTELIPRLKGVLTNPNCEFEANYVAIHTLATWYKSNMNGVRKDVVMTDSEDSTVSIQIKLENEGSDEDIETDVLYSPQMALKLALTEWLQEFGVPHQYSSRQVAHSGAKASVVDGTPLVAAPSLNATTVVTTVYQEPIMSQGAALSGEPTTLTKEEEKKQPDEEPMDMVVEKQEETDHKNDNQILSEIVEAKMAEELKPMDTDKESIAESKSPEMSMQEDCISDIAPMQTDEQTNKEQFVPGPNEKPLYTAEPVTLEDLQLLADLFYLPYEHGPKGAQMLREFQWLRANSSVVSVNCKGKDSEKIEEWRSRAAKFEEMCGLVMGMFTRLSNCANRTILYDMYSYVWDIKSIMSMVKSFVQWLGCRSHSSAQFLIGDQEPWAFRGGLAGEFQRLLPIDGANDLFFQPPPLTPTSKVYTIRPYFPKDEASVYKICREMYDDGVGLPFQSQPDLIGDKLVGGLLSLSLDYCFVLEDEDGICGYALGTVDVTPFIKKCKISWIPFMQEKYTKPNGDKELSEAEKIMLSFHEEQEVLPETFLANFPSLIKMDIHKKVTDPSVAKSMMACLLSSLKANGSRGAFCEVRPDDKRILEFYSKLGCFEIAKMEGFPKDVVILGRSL
# T2: human O-GlcNAcase (hOGA) Y69F (human) (UniProt O60502)
# T2 sequence: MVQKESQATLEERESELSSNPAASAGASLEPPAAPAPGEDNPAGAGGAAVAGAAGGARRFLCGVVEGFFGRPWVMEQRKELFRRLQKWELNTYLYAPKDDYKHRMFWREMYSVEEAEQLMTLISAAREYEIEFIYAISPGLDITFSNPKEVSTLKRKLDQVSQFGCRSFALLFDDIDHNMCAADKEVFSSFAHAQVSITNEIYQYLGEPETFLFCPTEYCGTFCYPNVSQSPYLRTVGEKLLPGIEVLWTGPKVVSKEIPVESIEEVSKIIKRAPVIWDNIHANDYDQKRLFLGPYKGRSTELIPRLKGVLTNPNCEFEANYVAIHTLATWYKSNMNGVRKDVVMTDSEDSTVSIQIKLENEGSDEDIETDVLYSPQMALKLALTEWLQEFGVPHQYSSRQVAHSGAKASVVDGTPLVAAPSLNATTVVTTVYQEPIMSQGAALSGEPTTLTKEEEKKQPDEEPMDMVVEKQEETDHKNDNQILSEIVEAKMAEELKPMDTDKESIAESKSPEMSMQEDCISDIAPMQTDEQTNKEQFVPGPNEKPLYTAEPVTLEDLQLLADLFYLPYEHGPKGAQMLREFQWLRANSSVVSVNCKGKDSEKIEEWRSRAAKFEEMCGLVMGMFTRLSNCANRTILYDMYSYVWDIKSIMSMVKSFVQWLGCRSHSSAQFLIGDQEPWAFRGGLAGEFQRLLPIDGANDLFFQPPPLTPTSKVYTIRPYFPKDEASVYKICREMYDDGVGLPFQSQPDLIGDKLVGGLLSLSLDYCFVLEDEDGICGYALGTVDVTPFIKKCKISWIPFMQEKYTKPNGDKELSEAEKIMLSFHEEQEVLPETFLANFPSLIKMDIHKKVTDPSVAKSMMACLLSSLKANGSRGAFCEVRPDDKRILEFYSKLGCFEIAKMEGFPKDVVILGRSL
# T3: human O-GlcNAcase (hOGA) Y69K (human) (UniProt O60502)
# T3 sequence: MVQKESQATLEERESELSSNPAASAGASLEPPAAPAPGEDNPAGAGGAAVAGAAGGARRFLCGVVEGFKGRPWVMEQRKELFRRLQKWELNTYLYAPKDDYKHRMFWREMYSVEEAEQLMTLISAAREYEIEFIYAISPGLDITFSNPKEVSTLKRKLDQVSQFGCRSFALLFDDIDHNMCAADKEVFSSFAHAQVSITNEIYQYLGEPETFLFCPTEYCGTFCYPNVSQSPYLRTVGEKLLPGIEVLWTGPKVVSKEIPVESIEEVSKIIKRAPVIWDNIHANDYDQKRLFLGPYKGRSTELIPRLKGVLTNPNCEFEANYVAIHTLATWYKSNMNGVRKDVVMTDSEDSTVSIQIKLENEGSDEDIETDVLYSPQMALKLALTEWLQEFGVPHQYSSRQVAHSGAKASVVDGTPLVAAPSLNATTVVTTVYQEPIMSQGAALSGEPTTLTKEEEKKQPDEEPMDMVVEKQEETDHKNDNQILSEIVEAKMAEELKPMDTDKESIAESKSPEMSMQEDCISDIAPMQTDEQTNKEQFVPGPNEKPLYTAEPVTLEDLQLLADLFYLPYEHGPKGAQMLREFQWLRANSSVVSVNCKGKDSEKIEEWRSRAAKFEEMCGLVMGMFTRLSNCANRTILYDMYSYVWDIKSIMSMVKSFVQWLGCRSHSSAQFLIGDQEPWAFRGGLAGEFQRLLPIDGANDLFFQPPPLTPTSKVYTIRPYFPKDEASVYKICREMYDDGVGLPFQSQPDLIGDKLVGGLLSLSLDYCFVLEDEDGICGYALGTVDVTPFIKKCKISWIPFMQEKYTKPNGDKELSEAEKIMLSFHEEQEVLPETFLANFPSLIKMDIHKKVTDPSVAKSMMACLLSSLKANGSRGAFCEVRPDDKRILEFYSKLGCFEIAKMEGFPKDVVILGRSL
# Experiments:
# [1] = target: T1, human O-GlcNAcase (hOGA), wild-type (human)
# [2] = target: T2, human O-GlcNAcase (hOGA) Y69F (human)
# [3] = target: T3, human O-GlcNAcase (hOGA) Y69K (human)
binder,measurement,setting,value
Ac-PVSVPYS(βGlcNAc)SAQSTS-NH2 (SMILES CC(=O)N[C@H]1[C@H](OC[C@H](NC(=O)[C@H](Cc2ccc(O)cc2)NC(=O)[C@@H]2CCCN2C(=O)[C@@H](NC(=O)[C@H](CO)NC(=O)[C@@H](NC(=O)[C@@H]2CCCN2C(C)=O)C(C)C)C(C)C)C(=O)N[C@@H](CO)C(=O)N[C@@H](C)C(=O)N[C@@H](CCC(N)=O)C(=O)N[C@@H](CO)C(=O)N[C@H](C(=O)N[C@@H](CO)C(N)=O)[C@@H](C)O)O[C@H](CO)[C@@H](O)[C@@H]1O) [TAB1 peptide PVSVPYS(O-GlcNAc)SAQSTS],KM of the glycopeptide substrate (substrate competition assay with 4MU-GlcNAc as reporter substrate),[1],940 µM
same,KM of the glycopeptide substrate (substrate competition assay with 4MU-GlcNAc as reporter substrate),[2],1100 µM
same,KM of the glycopeptide substrate (substrate competition assay with 4MU-GlcNAc as reporter substrate),[3],> 4000 µM
